Results taken from doi:10.1101/2021.02.07.430167 (bioRxiv, 2021).

Biological target: T1, human TRADD death domain (199-312) (human, UniProt Q15628 199-312)
T1 sequence: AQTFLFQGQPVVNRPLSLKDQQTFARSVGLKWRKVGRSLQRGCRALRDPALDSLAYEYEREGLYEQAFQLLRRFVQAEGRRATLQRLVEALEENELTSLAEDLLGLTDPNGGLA
Test: NMR solution structure

B1: human p75 neurotrophin receptor death domain (330-427) (domain or fragment)
chain: KGDGGLYSSLPPAKREEVEKLLNGSAGDTWRHLAGELGYQPEHIDSFTHEACPVRALLASWATQDSATLDALLAALRRIQRADLVESLCSESTATSPV
binding result: binds
